This note sets out measurements from PMC4340053, “The DEAH-box Helicase Dhr1 Dissociates U3 from the Pre-rRNA to Promote Formation of the Central Pseudoknot” (PLoS Biology, 2015).

Substrate in the data set: Nc1ncnc2c1ncn2[C@@H]1O[C@H](COP(=O)(O)OP(=O)(O)OP(=O)(O)O)[C@@H](O)[C@H]1O
Briefly: purified protein. In kind it is biochemical, Saccharomyces cerevisiae. The note with it: poly(A) RNA present, equimolar MgCl2, pH 8.0, room temperature.

Where a chain is given by its changes, count along the chain named. Names and notes keep the numbering of the source.

B1: Dhr1 (Ecm16) (Saccharomyces cerevisiae S288C) (protein)
chain: MGTYRKRFNEKARSGHMAKLKELKRIRNKQFTRQDENDERVENPDSAPAESSTTEPNANAEILEPLTEEEKKMKKRKLQELFTPKESKVSRLKKKRLDKFIEHQLKREERKTIIGKLQDYKIDTSLLTSSKRLGEGRQTKKEEFKEALSLERQGRGNEQTNEILYEEYEPKVWDEYGEGGSSEDDDGEDDFEASFGSMPKPTDNEEKKSSGFIDHRPAKFGGSGLSFGFSNIKVINKESKTPKKKYNWRQRVEMEELKKHGKEDEMDFDTTSEDDDEEEDQEEEDKMHPSENPLEEVESADSETGSEKFDQNDVANEFKDWANQEIKKLEGRDQELVTPTLNIDYKPIIRKEDLDDGLQEAYVPINENSTRKAFYVEVSRSDEIQKARIQLPVFGEEHKIMEAIHHNDVVIICGETGSGKTTQVPQFLYEAGFGAEDSPDYPGMVGITQPRRVAAVSMAERVANELGDHGHKVGYQIRFDSTAKEDTKVKFMTDGVLLREMMHDFKLTKYSSIIIDEAHERNINTDILIGMLSRCVRLRAKLHKENPIEHKKLKLIIMSATLRVSDFSENKTLFPIAPPVLQVDARQFPVSIHFNRRTAFNYTDEAFRKTCKIHQKLPPGAILVFLTGQQEITHMVKRLRKEFPFKKNSKYNKDLETPVSKMGINSKTTDLEAEDIDFSVQVIDQDKFKSAIRYEEDEGNSGNGEDEEDEEEEGFEEVLTEGQTANDPLYVLPLYSLLPTKEQMRVFQKPPQGSRLCIVATNVAETSLTIPGVRYVVDSGRSKERKYNESNGVQSFEVGWVSKASANQRSGRAGRTGPGHCYRLYSSAVFEHDFEQFSKPEILRMPVESIVLQMKSMAIHNIINFPFPTPPDRVALSKAIQLLQYLGALDNKEMITEDGKKMSLFPLSPRFSKMLLVSDEKACLPYIVAIVSALSVGDPFINEFELGINEISRKPNPDENLDDKIREHDESTPGMDPELKKELRSKFYKSRSQFSKLDKFSDVFRLLSVVSAMDYVPKEQKEIFMKKNFLRGKLMEEIVKLRKQLMYIIKSNTSKENIAVVIRNEDLKSDIPSVIQIKLLKQMICAGFVDHVAVRADVLFPDDAKITNRTSIINIPYIPVLATRTPNIEDCFVYIHPTSILNNLGEMPPKYMLYYSLHLGGNNKTRMNTLCDIASTPLANIARKGLLLTYSKPLTGQGLKTVNLSPTERYCYVVPRFGSTVDNDLKIGWDLNPIAVHQKKQKGQWTVIKFITRKGFQTITGEEKEKK
notes: full-length with C-terminal Leu-Glu-6xHis (pAJ2312), tag kept; expressed in E. coli BL21 Star (DE3), RNase-treated, Ni-NTA and SP HiTrap
Consider B1, for which the Km (in general, the concentration of substrate that gives half-maximal velocity) came out at 106 µM and the kcat – broadly, the maximal rate divided by the concentration of active sites – stood at 0.217 s⁻¹.

B2: Dhr1 (Ecm16) (Saccharomyces cerevisiae S288C; K420A) (protein)
chain: B1 chain with K420A
notes: as for B1
Consider B2, for which the Km came to 1000 µM and the kcat worked out at 0.05 s⁻¹.

B3: Dhr1 (Ecm16) (Saccharomyces cerevisiae S288C; D516A/E517A) (protein)
chain: B1 chain with D516A, E517A
notes: as for B1
On to B3, for which the Km came out at 136 µM and the kcat was determined as 0.03 s⁻¹.
